# According to the DeepSol protein solubility set:
# Experiment: soluble on expression in E. coli; label from the status in PepcDB or PDB records
row,Sequence,soluble on expression in E. coli
1,MGSDKIHHHHHHMSVCARPERPWDERDRERFMHRNKVVSREDWFQAHKAHLAREKELTRLRERVAAERRELPWLKVRKDYVFETEQGPKKLAELFANRSQLIVYHFVFAPGSTHHCESCAFVADHMDGANRHLRHHDVSLVTISRAPLVELLPYKQRMGWTFDWVSSYASDFNFDMQVSFTDRQIASGEAVYNFETPVLTSKDLPGTTVFYKGETGDIFLTFMSRARGSEQFIGAYQYLDIAPKGRDETGPYGTFMDWVRLHDEYGNRSQRDDVCP,not soluble
2,MGSDKIHHHHHHMSVTINDTSSASSTQGLSSTTAVEKNSSADLQNQFLTLLVAQLKNQDPTNPMSNDQLVSQLAQLNTVSGIEKLNTTLGSISGQINNNQSMQASTLIGHSVMIPGKDILVGKETSTPFGVELEKAAEVVTVTVNDATGKAVRTIELGTLSAGVHSFNWDSKLADGTVAPDGAYTFTVAASTGGAQQVVQPLSYAVVNSVVRGDSGALLDLGLRGKATLDDVRQIL,not soluble
3,MGSDKIHHHHHHMSYSEKMLAALSNGQIDTAKKHFAWALRKDDDQTLYSLAEELYGLGFLKQAERTYKKLLAKYPDEDDLRTSLADIAIDEDDTDLALDYLQQVKPDSPAYVQALLVEADLYQTQELFEVSEQKLKEAYQLAPDEPVVEFALAEFYFLIRNYGQATRFYLDLIKQGQLEISKVNLVERLGVAYAESGRFEQAVGYLEQIKPAKLTPDSQFELGFTYLQLNEPQKAVDIFDKLREQDNQYASLYPYLAQAQEQLHQLDKALLTLQEGLAVDQYNEQLYLQTARLALKLDDQELAEKYLREGLSIDPDNLTTVLELSNLLVQRERYQDNIDLLDQYLQSNEFDPQFYWNLAISNDRLDHFQAAKDNYEAAYPFFEHNKDFLKPAIYFFREAGMADSAVAALRNYLTIEPDDGEMVAMLEDYEDQGY,not soluble
4,MGSDKIHHHHHHMTAQQGVPIKITNKEIAQEFLDKYDTFLFDCDGVLWLGSQALPYTLEILNLLKQLGKQLIFVTNNSTKSRLAYTKKFASFGIDVKEEQIFTSGYASAVYIRDFLKLQPGKDKVWVFGESGIGEELKLMGYESLGGADSRLDTPFDAAKSPFLVNGLDKDVSCVIAGLDTKVNYHRLAVTLQYLQKDSVHFVGTNVDSTFPQKGYTFPGAGSMIESLAFSSNRRPSYCGKPNQNMLNSIISAFNLDRSKCCMVGDRLNTDMKFGVEGGLGGTLLVLSGIETEERALKISHDYPRPKFYIDKLGDIYTLTNNEL,not soluble
5,MGSDKIHHHHHHMTDIATYNFAYLDEQTKRMIRRAILKGIAIPGYQVPFASREMPMPYGWGTGGVQVTASIIGPDDVLKVIDQGADDTTNAVSIRAFFKKVANVAVTTNTASATIIQTRHRIPEHPLTAGQVLVYQVPIPEPLRFLEPRETETRKMHALEEYGLMHVKLYEDIAKHGRIATTYAYPVKVEGRYVMDPSPTPKFDNPKMHRSPALQLFGAGREKRIYAVPPFTDVVSLDFEDHPFEVQTFDQPCALCAAENVYLDEVILDDHGGHMFVCSDTDHCEKRREEGHRGHLAPETHLGSEKMEPAQ,not soluble
6,MGSDKIHHHHHHMTDRSSFIDTARQVVLDEARALDALSESLGDGFAEAVELILRTKGRVIVSGIGKSGHIGHKIAATLASTGTPAYFVHPAEASHGDLGMLSGDDVVLAISNSGEAPELANLLAFTRRFAIPLIGLSSKSESSLMQQADVHLLIPALGEACGFGMVPSISTTLTLAMGDALAIALMKYRDFRPENFRVFHPGGKLGARLSRVSDLMHGGEAVPLIAADTPMSEALLEISRKGFGVVGVTDGAGHLAGIVTDGDLRRHMSGLLDKTAAQVMTANPTTIAPDSLAEEAVAIMNARKITSLFVVDPAEPGVARGLLHIHDCLRVGLG,not soluble
7,MGSDKIHHHHHHMTEGKSMFVGFDYGSANCAIGVMIDDAVSLLPLSTHSDFMPSTLYAMDRELIAEAVYQGLPEHLKAEYSHLRSSQLMRAKLMRHELDLSPNEQAVFVGQAAIDAYLDMPEEGFYVRSPKSFLGANGLRVEQIALFEDIVTLMMQHVKTLADKALNAKSLSSASHAVIGRPVNFQGIGGEDSNQQAETILRLAATRSGFTDVRFLFEPLAAGMDFESNLSDDNTVLVVDVGGGTTDCSVVKMGPSYIKQQDRSPDCFGHSGQRIGGNDLDIALAMTGLMPSFGADTLMINGKPMPRTPFWNAVAVNDISAQRDFVSLPSRKLVEQLIKEAQQPELLVRLQKVQKNQMSYQVVREAEAAKISLSDNDTIQCSLDFIEKGLLVPLTAAQFEQAINDPLAKVEALMKQAMQTATAKAEQQDCDMPTTPDIVYVTGGTARSPAIYNKIASVYPNAKVVVGDHFGSVTAGLTRCAEKCL,not soluble
8,MGSDKIHHHHHHMTEIATIEKPAQHGATTRLIDIVFPGDTNHHGTLFGGTGLALMDRVAFIAATRFGRTPFVTASCERIDFRQPARIGHIVEFTARPVKAGRRSLTVEVEMVAETIIGRQQHTCTRGIFHMVAIPEGEDAASYVLPELLTEETPDPSDAVTMVEIVFPDQANSAGRMFGGEAIAYMTKAAFVAASRYCGKLVVLASSERIDFARAIEIGEIVEAQAHVERVGRSSMSIQTKLWSENLLTGERHITATGHFTMVAVDKDHRPATIRDPAEAFSLEKGGA,soluble
9,MGSDKIHHHHHHMTEIQTIRKKVEQQITSLQNETDEIAEFNQAKVLDAFQENKVSDFHFNPSTGYGYDDEGRDTLERVYASVFKTEAALVRPQIISGTHAISTVLFGILRPGDELLYITGEPYDTLEEIVGIRSEGQGSLKDFQIGYDAVPLLPNGEIDYPAVSKKISANTKMIGIQRSRGYADRPSFTIEKIKEMVTFVKNINPNIIVFVDNCYGEFVERIEPTEVGADIIAGSLIKNPGGGLAKTGGYIAGRNTLVDLCGYRLTTPGIGREAGASLYSLLEMYQGFFLAPHVTAQAIKGARFTAAMLAEFGVEADPLWDAKRTDLIQSVSFHSKDKMIAFAQAIQAASPVNAHVLPIGAYMPGYEDDVIMAAGTFIQGASLELTADGPIREPYQLYVQGGLTYEHVKIAVTRAIENSL,not soluble
10,MGSDKIHHHHHHMTEMNHSVPDDMLMGYASGSLAKAFDLVLATHVSLNDDARARLETFEALGGAILCGMDTVDVDDDSLEQTMAKIRGNAPIERPAPSEGLFPTPLQSMVGGDVDAVRWRSVGGGVKQCVLHSDDGGTVRLLSIAAGRAMPAHSHHGTEMTLVLQGAYRDDDGIFARGDLELADTDTNHQPVAEPGQDCICLVATNAKLKFQGLLPRIAQPFLGI,not soluble
11,MGSDKIHHHHHHMTEQITPQAFLAGRLLLESEVPSEFLTNKDVITEPSIITENGRYHCRRCCNEHRELFATAPCAWCGNRHCIYCRNCLMLGRVTACRKLVRWKGEPYAFPSHSNVLQWKGTLSHGQRHASLQAVQYWKQKEDHIIWAVCGSGKTEIVFDAVAQSLANGERILLATPRVDVVKELYPRFKQAFPSITITALYGDSPSVFHPAQLVIATTHQTFRFKKAFDFVIVDEVDAFPFSCDQSLQLSVNEARRPLAPILYLSATPSRSLLEQNKRITKVSTRYHGHPLPLPSFVWIGNWRKTVMRRKLPSKLVTWLEKHHRKPVFLFVPSIPVLEQVSAALKQLGYIHDAVHAEDPHRHEKVTRFRDGVTKLLVTTTILERGVTVPRVQVAVLGAEHSVFSEAALVQISGRVGRSHRHPTGDIAFFHYGVSKAMKRCRQQLQQMNREGF,not soluble
12,MGSDKIHHHHHHMTEQNRDLVLVTGASGFVGSSVARIAQQKGFKVRVLVRATSPRQNVESLDAEIVVGDMRDEASMRNALRGVRYLLHVAADYRLWAPDPSEIERSNLEGTEATMRAALKEGVERIVYTSSVATLKVTSSGQSADETSPLKADQAIGVYKRSKVLAERAVERMIAEDNLPAVIVNPSTPIGPRDVKPTPTGRIIVEAALGKIPAFVDTGLNLVHVDDVAAGHFLALERGKIGERYILGGENLPLQQMLADIAALTGRKAPTLSLPRWPLYPLAMGAEAIAKITKREPFVTVDGLKMSKNKMYFTSAKAERELGYRARPYREGLGDALEWFRQAGYLKA,not soluble
13,MGSDKIHHHHHHMTEVISTQSVVDLAAIAEKFAFPGTVTNVQAFGSGNINDTFLVTVDSLEAQHFILQRINTLVFRQPELIMQNMRIFSDHVYQRLQYAPPSRRWEVPRILSTKDNHDYCTDTQGNFWRAISFISGSQSFDTMQDLAQAQEIGYALGMFHNLISDLSPEKLADTLVGFHITPLYLRHYEQVLATAKPQPSPELDYCLQFVSDRQSYACILENAKAAGELPLRLMHGDPKINNIMFDTVTHKAVSVIDLDTVKPGLVHYDIGDCLRSGCNHAGEETEHWESVAFDTDLCQGILQGYLSVAKDFLTENDYAYMYDAIRLIAFELGLRFFADYLAGNVYFKIKYPEHNLARALVQFKLTESIESQEIKIRKIIQDIK,not soluble
14,MGSDKIHHHHHHMTFIDSPLSQTIALAGGDLHVAVARSDLPLGALCGFASRRNPKRPFLFVSKVLGRHLPVRPQVMRMVHRRLAAKLPANLPGPVVAIGMAETAICLGQGVFEAWRGGSGREDGLFIHSTRYRLRQGLLSTFEESHSHATSHLIHQPAAALDRALCAACRTLVLVDDEASTGATFVALVEANRAAMPNLARIVCVTITDWMGAAKRAEITAAMPVPTTFVSLLEGGYTFEARTVTPPAMPNVTGDGAFKDDLIPVNWGRLGLRRPRPLPAAALAIRAKAGERVLVLGTGEFVFPPFQLARRLSAMGADVRVQATTRSPILEGGDIDGVIDFADAYGDGIPNFLYSTRPGDYDRVLVCYETPPSTAQTALIAALGAEPVFFNAIGGPRT,not soluble
15,MGSDKIHHHHHHMTGRQFDIEPLMDEINKSLKQEVNYLTEAQNTDLVKRTLTADHYVVPKVYHDYTTETVLTQSFETGLSVNQWIRSNPSRSDIQNFSQLVIQLMIDEMLLTGVVQTDPNYANFLYRPDSRQLVLLDFGATWTYSTEFRHDIHKLSMALLSGEIDKLMVGIYTRGYLDTRESDETKAQLREVLRMIGDISANLPQPVALQVDVAHDEIRAAAHVMGRGIRHTTLHKDLVLIGRKLTGMLLLLKEINAIVDFNEVRAHISAIKV,not soluble
16,MGSDKIHHHHHHMTICYNFAYLDEGTKKKIRRTLLKAVAIPGHQIPFASREMPLPYGWGTGGIQVTAAVIGPEDILKVIDQGSDDTTNAVSIRNFFRSTTGVRTTTSTREATLIQTRHRIPETPLHAGQMLIYQVPMPEPLFKLEPRVSETIALHAMADYSLMYLKLYDQITRYGRIAIGYEYPVIVHDRYLTSSSPIPAYDVPKMHMSPALQLFGAGREKRLYAIPPYTRVIPLDFTDYPFDPVNTWQPCALCGAVESYKDEIVIDDAGNRQFICSDTDFCEHRR,not soluble
17,MGSDKIHHHHHHMTISISEPTPPASLLAIKDEIRAEALKLGFSVCGFASATDAWPNGGWLREFVQAERHGAMGWMEETLERRSHPTAMWTDAKSAVVLGVNYGPDIDPLEQLADPARAAISVYAQGDDYHDVIKKRLKVLAGWMHRRFGQEVKVFVDTAPLLEKPLAQRAGLGWQGKHTNLVSRQFGSWLFLGSVLTTLDLPADDAEVDHCGSCRACLDVCPTNAFPAPRQLDARRCISYLTIELSGPIPAEFRPAMGNRIYGCDDCLAVCPWNKFASLSNEAKLVAREALRQPSLAELAVLDDAAFRALFSKNPIKRIGRDRFVRNVLYAIGNSGDAGLMAVVEPLLDDPAPVVRGAAVWAARRLLGDDAAALKRGENDESVLAEWS,not soluble
